Laboratory results taken from patent US20210238276A1 (INTEGRAL MOLECULAR, published 2021).
Residue numbers refer to the chain shown, from its start.

Assays:
Assay in all cases: flow cytometry, alanine-scan library in HEK-293T, with cytochalasin B
[1] = target: T1, hsGLUT4 L155A (human, UniProt P14672 1-509)
T1 sequence: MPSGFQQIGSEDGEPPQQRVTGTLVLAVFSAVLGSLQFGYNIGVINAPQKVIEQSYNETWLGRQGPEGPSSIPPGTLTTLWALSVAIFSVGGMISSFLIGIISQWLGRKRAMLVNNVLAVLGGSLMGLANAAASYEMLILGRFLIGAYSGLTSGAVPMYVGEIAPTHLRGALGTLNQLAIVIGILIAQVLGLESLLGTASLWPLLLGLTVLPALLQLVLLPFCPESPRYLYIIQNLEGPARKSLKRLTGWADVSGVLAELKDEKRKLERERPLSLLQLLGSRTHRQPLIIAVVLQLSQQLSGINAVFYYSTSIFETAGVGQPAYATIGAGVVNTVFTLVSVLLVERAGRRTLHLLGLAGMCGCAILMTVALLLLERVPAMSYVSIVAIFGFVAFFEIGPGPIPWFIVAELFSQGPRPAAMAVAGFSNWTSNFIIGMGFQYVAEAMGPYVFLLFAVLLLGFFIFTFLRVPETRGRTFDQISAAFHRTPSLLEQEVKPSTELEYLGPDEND
Summary of the method: (§1)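 HEK-293T cells expressing individual GLUT4 alanine mutants were stained 48 h post-transfection with anti-GLUT4 scFv MAbs (2 μg/ml), then biotinylated secondary and streptavidin-PerCP, and read by high-throughput flow cytometry. Where used, cytochalasin B (10 uM final) was given for 30 min before and during primary antibody staining.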

[2] = target: T2, hsGLUT4 R169A (human, UniProt P14672 1-509)
T2 sequence: T1 sequence with A155L, R169A
Summary of the method: as §1

[3] = target: T3, hsGLUT4 P224A (human, UniProt P14672 1-509)
T3 sequence: T1 sequence with A155L, P224A
Summary of the method: as §1

[4] = target: T4, hsGLUT4 F314A (human, UniProt P14672 1-509)
T4 sequence: T1 sequence with A155L, F314A
Summary of the method: as §1

B1: AB102 (Fc fusion)
scFv: ALTQPSSVSANLGGTVKITCSGGGSYGYGWYQQKSPGSAPVTVIYSNDQRPSDIPSRFSGSKSGSTATLTITGVRAEDEAIYYCGSTDSDYVGIFGAGTTLTVLGQSSRSSGGGGSSGGGGSAVTLDESGGGLQTPGGTLSLVCKASGFDFSSYATIWVRQAPGKGLEWVAGISGTGTGSSTGYAPAVKGRATISRDNGQSTVRLQLNNLRAEDTGSYFCAKSTGYGDSWIYPDSIDAWGHGTEVIVSS
notes: also called MAb AB102; not shown: Fc fragment of human IgG1, cloned in frame with the scFv
[1]
  % of binding to wild type GLUT4: 26%
[2]
  % of binding to wild type GLUT4: 77%
[3]
  % of binding to wild type GLUT4: 29%
[4]
  % of binding to wild type GLUT4: 23%
